One test addresses T1, CD73 (Homo sapiens, UniProt P21589).
T1 construct: His (Chis) (C); made in house; host or cells: 293 cells
T1 sequence (P21589 27-549 limits assumed): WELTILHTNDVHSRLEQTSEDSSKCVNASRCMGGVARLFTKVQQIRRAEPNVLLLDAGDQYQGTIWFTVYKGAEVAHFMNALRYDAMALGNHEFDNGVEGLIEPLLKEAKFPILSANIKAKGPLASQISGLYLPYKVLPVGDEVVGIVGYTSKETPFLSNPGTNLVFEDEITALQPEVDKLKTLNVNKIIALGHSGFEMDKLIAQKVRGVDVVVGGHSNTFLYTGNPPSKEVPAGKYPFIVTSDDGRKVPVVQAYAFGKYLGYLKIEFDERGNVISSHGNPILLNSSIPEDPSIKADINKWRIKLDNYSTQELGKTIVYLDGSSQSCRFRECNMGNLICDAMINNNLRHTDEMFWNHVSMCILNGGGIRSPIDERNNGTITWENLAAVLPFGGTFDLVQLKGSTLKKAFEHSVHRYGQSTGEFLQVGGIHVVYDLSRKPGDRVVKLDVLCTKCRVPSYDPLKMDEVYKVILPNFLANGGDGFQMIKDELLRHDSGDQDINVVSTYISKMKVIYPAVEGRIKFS
Nature of the test: CD73 inhibition, AMP hydrolysis, malachite green phosphate assay. To be noted: for IC50: full-length IgG1 conjugated to BN3, read-out: IC50 ± SD (nM) of Ab-BN3 for inhibition of CD73. The format is biochemical.

In a further test the target is T2, NaV1.2 (Homo sapiens, UniProt Q99250).
T2 construct: expressed in transfected cells; host or cells: HEK293
T2 sequence (Q99250 whole entry): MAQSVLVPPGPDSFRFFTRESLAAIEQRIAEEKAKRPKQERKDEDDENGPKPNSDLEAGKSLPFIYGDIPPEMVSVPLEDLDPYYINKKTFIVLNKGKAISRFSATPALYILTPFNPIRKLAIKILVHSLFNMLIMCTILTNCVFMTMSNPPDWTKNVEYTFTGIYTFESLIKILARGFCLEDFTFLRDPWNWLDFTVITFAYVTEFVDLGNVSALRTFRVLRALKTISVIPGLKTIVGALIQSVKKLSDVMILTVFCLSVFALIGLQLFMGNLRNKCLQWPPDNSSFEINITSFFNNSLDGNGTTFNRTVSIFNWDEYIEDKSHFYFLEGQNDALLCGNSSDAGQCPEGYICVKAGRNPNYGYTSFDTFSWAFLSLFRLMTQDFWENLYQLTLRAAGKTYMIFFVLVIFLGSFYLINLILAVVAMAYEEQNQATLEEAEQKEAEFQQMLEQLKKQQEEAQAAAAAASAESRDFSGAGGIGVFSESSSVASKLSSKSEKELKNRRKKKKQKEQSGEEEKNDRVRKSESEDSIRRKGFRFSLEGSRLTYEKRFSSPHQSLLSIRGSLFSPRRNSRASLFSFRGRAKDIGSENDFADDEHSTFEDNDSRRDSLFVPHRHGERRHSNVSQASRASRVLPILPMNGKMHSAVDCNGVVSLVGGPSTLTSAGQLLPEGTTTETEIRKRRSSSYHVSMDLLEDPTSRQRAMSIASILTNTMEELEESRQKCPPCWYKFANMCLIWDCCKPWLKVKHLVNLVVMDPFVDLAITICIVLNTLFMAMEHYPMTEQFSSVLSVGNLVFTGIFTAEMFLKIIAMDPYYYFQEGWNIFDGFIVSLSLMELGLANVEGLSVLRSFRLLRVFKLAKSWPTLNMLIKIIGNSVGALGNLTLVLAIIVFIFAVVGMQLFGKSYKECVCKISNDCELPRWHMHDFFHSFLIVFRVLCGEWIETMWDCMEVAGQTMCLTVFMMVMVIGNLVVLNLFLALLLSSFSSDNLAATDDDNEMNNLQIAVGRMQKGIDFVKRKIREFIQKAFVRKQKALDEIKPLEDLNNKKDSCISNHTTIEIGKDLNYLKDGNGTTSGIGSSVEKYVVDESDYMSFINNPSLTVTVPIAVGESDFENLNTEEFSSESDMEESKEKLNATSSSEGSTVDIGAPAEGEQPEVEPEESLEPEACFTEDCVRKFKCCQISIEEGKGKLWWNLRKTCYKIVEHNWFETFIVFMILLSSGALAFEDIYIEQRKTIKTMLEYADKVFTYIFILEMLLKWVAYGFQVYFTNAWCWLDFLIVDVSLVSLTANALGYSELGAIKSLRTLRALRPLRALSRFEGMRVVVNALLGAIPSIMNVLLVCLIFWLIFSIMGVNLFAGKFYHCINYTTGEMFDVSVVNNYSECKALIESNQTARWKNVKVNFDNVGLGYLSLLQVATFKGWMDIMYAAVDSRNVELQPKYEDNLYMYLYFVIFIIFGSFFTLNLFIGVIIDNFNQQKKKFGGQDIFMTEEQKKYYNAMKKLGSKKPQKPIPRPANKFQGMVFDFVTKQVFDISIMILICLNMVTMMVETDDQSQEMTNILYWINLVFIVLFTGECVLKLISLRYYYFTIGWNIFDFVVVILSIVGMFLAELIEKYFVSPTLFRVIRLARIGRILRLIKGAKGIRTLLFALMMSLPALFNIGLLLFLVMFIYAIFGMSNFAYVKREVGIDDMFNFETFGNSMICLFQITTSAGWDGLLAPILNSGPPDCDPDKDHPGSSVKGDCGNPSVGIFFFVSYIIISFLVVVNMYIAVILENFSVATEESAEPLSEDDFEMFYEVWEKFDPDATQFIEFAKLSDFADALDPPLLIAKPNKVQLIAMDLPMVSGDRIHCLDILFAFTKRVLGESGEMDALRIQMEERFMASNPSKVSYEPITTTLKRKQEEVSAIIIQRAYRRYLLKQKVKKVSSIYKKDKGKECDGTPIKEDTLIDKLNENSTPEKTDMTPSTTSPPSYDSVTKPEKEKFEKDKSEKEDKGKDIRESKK
Put plainly: Whole-cell patch clamp, HEK293-NaV1.2 cells. In kind it is cell-based. Particulars: for inhibitory activity against NaV1.2 (in words): tested up to 500 nM. (The patch-clamp technique gives a direct electrical read-out from membranes.)

The target in the next test is T3, NaV1.7 (Homo sapiens, UniProt Q15858).
T3 construct: expressed in transfected cells; host or cells: HEK293
T3 sequence (Q15858 whole entry): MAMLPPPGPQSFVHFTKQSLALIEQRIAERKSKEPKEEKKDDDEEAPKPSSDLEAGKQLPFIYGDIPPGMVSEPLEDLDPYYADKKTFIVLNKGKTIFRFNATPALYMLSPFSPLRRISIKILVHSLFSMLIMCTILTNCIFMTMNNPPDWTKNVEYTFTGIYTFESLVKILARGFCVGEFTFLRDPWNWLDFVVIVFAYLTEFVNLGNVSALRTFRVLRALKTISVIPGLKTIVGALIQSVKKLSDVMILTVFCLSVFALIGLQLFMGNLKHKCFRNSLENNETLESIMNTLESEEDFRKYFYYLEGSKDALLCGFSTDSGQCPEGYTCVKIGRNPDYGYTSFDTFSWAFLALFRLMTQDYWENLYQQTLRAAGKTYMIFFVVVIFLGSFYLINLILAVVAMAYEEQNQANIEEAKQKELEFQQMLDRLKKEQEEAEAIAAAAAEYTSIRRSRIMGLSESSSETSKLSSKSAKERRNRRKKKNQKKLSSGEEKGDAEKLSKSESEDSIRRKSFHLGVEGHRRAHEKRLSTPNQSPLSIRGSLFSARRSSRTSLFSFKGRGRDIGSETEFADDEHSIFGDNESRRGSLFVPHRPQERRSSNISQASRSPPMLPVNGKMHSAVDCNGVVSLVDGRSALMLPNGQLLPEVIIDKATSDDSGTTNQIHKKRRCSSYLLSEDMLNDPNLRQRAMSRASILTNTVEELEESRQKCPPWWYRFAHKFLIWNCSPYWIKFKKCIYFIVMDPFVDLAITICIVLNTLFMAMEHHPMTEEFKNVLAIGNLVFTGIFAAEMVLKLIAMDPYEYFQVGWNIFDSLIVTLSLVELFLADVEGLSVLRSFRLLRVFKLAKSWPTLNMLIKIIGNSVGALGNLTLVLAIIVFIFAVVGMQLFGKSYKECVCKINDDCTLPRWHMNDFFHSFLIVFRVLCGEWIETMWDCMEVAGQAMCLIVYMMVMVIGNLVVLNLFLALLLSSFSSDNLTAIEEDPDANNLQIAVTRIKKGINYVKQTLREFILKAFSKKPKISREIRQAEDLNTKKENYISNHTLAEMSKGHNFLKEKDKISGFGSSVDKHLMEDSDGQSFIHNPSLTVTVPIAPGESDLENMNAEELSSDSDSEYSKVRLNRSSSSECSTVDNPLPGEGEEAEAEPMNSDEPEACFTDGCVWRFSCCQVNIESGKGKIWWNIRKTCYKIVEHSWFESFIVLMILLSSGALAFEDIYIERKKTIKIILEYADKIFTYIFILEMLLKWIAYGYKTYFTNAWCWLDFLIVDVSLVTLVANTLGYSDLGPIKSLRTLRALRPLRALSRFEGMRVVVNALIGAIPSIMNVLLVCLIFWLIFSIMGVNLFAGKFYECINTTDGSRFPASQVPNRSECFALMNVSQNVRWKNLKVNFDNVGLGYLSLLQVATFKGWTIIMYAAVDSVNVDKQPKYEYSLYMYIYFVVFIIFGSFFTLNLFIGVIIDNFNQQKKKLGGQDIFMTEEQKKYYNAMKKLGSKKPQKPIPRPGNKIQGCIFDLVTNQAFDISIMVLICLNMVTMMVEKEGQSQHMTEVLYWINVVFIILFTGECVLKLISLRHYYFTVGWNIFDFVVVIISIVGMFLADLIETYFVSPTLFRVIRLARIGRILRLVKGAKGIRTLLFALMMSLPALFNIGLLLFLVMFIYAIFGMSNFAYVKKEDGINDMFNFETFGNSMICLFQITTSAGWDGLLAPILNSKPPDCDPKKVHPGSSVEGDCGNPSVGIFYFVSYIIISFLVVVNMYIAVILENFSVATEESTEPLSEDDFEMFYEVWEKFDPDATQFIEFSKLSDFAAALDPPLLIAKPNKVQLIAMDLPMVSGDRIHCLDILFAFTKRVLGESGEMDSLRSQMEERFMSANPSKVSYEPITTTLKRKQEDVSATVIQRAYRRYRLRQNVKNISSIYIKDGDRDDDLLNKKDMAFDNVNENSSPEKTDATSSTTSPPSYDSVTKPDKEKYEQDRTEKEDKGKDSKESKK
Put plainly: Whole-cell patch clamp, HEK293-NaV1.7 cells. In kind it is cell-based.

The mark [1] stands for this setting: non-competitive screening clones, 15 min incubation, read-out: IC50 ± SEM (nM) of Ab-PEG3-ASF in inhibiting NaV1.7.
Where [2] appears, read: competitive screening clones, read-out: IC50 ± SEM of NaV1.7-selective Ab-ASF.

Several values for one entry are separate records, joined by “and”; a condition that tells them apart may be missing. Equal entries are not always repeated. Where two headings read alike, the source gives them in different places.

B1: 6D11: CD73 antibody clone, VH SEQ ID NO: 81, VL SEQ ID NO: 91 (antibody, V domains shown)
VH: EVQLVESGGGLVQPGGSLRLSCAASGFTFSGHWMHWVRQAPGKGLEWIGSIYYSGSTYYNPSLKSRVTISADTSKNTAYLQMNSLRAEDTAVYYCARDRGWLQFDYWGQGTLVTVSS
VL: DIQMTQSPSSLSASVGDRVTITCRASQNIGTYLAWYQQKPGKAPKLLIYDASNLETGVPSRFSGSRSGTDFTLTISSLQPEDFATYYCQQXYTTPPTFGQGTKLEI
modifications: VARIANT 91 natural amino acid or unnatural amino acid
In the case of B1, in the test with CD73, the “inhibitory activity against CD73 (in words)” value is given as “weak inhibitory trend” and the IC50 (usually the concentration that inhibits the measured activity by half) is 0.464 nM.

B2: G3-PEG3-ASF: IgG1 Ab-UAA G3 conjugated with ASF-PEG3-DBCO (conjugate)
VH: EVQLVESGGGLVQPGGSLRLSCAASGFTFSASYMSWVRQAPGKGLEWIGSIYYSGSTYYNPSLKSRVTISADTSKNTAYLQMNSLRAEDTAVYYCARGAPYYEGAFDIWGQGTLVTVSS
VL: DIQMTQSPSSLSASVGDRVTITCRASQYISTYLNWYQQKPGKAPKVLISKTSYLESGVPSRFSGSRSGTDFTLTISSLQPEDFATYYCQQXYTTPPTFGQGTKLEI
modifications: non-natural residues
notes: IgG1 Ab-UAA G3 conjugated with ASF-PEG3-DBCO
With B2, the “inhibition of NaV1.2 at 500 nM” value with NaV1.2 (highest tested concentration of 500 nM) is listed as “approximately 60%”. In addition, in the test with NaV1.2, the “inhibitory activity against NaV1.2 (in words)” value was “only weak inhibitory activity”. Besides, the concentration for half-maximal inhibition (IC50) with NaV1.7 (setting [1]) was 1.88 ± 0.394 nM.

B3: F3-PEG3-ASF: IgG1 Ab-UAA F3 conjugated with ASF-PEG3-DBCO (conjugate)
VH: EVQLVESGGGLVQPGGSLRLSCAASGFTFSGHWMHWVRQAPGKGLEWVASISDSSSYIYYADSVRGRFTISRDNAKKTLYLQMNSLRAEDTAVYYCARDYEGATRAADYWGQGTLVTVSS
VL: DIQMTQSPSSLSASVGDRVTITCRASQVIGNDLGWYQQKPGKAPKLLIYDVSNVQTGVPSRFSGSRSGTDFTLTISSLQPEDFATYYCQQXYTTPPTFGQGTKLEI
modifications: non-natural residues
notes: IgG1 Ab-UAA F3 conjugated with ASF-PEG3-DBCO
Take B3: the “inhibitory activity against NaV1.2 (in words)” value with NaV1.2 is on record as “no inhibitory activity”. For the same molecule, the IC50 in the test with NaV1.7 (setting [1]) is 2.69 ± 0.687 nM.

B4: 15A10-PEG3-ASF: Ab-UAA 15A10 conjugated to ASF-PEG3-DBCO (conjugate)
VH: EVQLVESGGGLVQPGGSLRLSCAASGFPFSGHWMHWVRQAPGKGLEWVSGISGTGATSHYADSVKGRFTISADTSKNTAYLQMNSLRAEDTAVYYCAREVITAASTDAFDLWGQGTLVTVSS
VL: DIQMTQSPSSLSASVGDRVTITCRASQSIGSSLHWYQQKPGKAPTVLIYAASSLQTGVPSRFSGSRSGTDFTLTISSLQPEDFATYYCQQXYTTPPTFGQGTKLEI
modifications: not fully specified; non-natural residues
notes: Ab-UAA 15A10 conjugated to ASF-PEG3-DBCO
On to B4, for which, in the test with NaV1.7 (setting [2]), the IC50 stood at 0.138 ± 0.0414 nM.

B5: 14H4-PEG3-ASF: antibody 14H4 conjugated with ASF-PEG3-DBCO (conjugate)
VH: EVQLVESGGGLVQPGGSLRLSCAASGFSFSKFWMHWVRQAPGKGLEWVAFMAHDESNKNYADSVKGRFTISADTSKNTAYLQMNSLRAEDTAVYYCARDKVCNTFDIWGQGTLVTVSS
VL: DIQMTQSPSSLSASVGDRVTITCRASQSISSDLNWYQQKPGKAPKLLIYRATFLESGVPSRFSGSRSGTDFTLTISSLQPEDFATYYCQQXYTTPPTFGQGTKLEI
modifications: not fully specified; non-natural residues
notes: antibody 14H4 conjugated with ASF-PEG3-DBCO
B5: the “inhibitory activity against NaV1.2 at 100 nM (in words)” value with NaV1.2 (100 nM Ab-ASF) is listed as “near-complete inhibition”. In the test with NaV1.7 (100 nM), the “inhibition rate of NaV1.7 at 100 nM” value is listed as “about 30%”. The “inhibition rate of NaV1.7 at 500 nM” value with NaV1.7 (500 nM) is given as “about 40%”.

B6: 15F9-PEG3-ASF: Ab-UAA 15F9 conjugated to ASF-PEG3-DBCO (conjugate)
VH: EVQLVESGGGLVQPGGSLRLSCAASGFTFSKFWMHWVRQAPGKGLEWVSSISSSSSYIYYADSVKGRFTISADTSKNTAYLQMNSLRAEDTAVYYCARDPISTGAFDIWGQGTLVTVSS
VL: DIQMTQSPSSLSASVGDRVTITCRASQSISSWLAWYQQKPGKAPKLLIYDASSLESGVPSRFSGSRSGTDFTLTISSLQPEDFATYYCQQXYTTPPTFGQGTKLEI
modifications: non-natural residues
notes: Ab-UAA 15F9 conjugated to ASF-PEG3-DBCO
B6: the “inhibitory activity against NaV1.7 at 10 nM (in words)” value with NaV1.7 (10 nM Ab-PEG3-ASF) is given as “essentially no inhibitory activity”.

B7: 15F7-PEG3-ASF: Ab-UAA 15F7 conjugated to ASF-PEG3-DBCO (conjugate)
VH: EVQLVESGGGLVQPGGSLRLSCAASGFTFSGHWMHWVRQAPGKGLEWVSAISGSGGSTYYADSVKGRFTISADTSKNTAYLQMNSLRAEDTAVYYCAREVTMVRGVTDAFDIWGQGTLVTVSS
VL: DIQMTQSPSSLSASVGDRVTITCRASQGISSDLGWYQQKPGKAPKLLIYDVSNVQTGVPSRFSGSRSGTDFTLTISSLQPEDFATYYCQQXYTTPPTFGQGTKLEI
modifications: non-natural residues
notes: Ab-UAA 15F7 conjugated to ASF-PEG3-DBCO
For the molecule B7, the “inhibition rate of NaV1.7 at 10 nM” value with NaV1.7 (10 nM Ab-PEG3-ASF) was “about 60%”. For the same molecule, in the test with NaV1.7 (setting [2]), the IC50 was 6.48 nM and 6.5 nM.

B8: 10A7-Fab-BN3: papain-derived Fab of 10A7 conjugated with BN3, monovalent (conjugate)
VH: EVQLVESGGGLVQPGGSLRLSCAASGFAFSSYSMSWVRQAPGKGLEWIGSIYYSGSTYYNPSLKSRVTISADTSKNTAYLQMNSLRAEDTAVYYCARNSGFETLDYWGQGTLVTVSS
VL: DIQMTQSPSSLSASVGDRVTITCRASQGISRWLAWYQQKPGKAPNLLIYGASTLQSGVPPRFSGSRSGTDFTLTISSLQPEDFATYYCQQXYTTPPTFGQGTKLEI
modifications: non-natural residues
On to B8, for which the “inhibitory activity against CD73 (in words)” value with CD73 is listed as “retained strong inhibitory activity”.

B9: H3-PEG3-ASF: IgG1 Ab-UAA H3 conjugated with ASF-PEG3-DBCO (conjugate)
VH: EVQLVESGGGLVQPGGSLRLSCAASGFTFSDYWISWVRQAPGKGLEWIGNVYYSGNAYYNPSLESRVTISADTSKNTAYLQMNSLRAEDTAVYYCARNTGFETLDNWGQGTLVTVSS
VL: DIQMTQSPSSLSASVGDRVTITCRASQSISSWLAWYQQKPGKAPNLLMYAASSLQSGVPSRFSGSRSGTDFTLTISSLQPEDFATYYCQQXYTTPPTFGQGTKLEI
modifications: non-natural residues
notes: IgG1 Ab-UAA H3 conjugated with ASF-PEG3-DBCO
Regarding B9, the IC50 in the test with NaV1.7 (setting [1]) amounted to 1.13 ± 0.191 nM.

B10: ABN3-2G: CD73 antibody clone, VH SEQ ID NO: 77, VL SEQ ID NO: 87 (antibody, V domains shown)
VH: EVQLVESGGGLVQPGGSLRLSCAASGITFGSYTMSWVRQAPGKGLEWIGTVHYTGKTFYSPSLKSRVTISADTSKNTAYLQMNSLRAEDTAVYYCARGRDFGEPPYVRAFDIWGQGTLVTVSS
VL: DIQMTQSPSSLSASVGDRVTITCQASHDISKYLNWYQQKPGKAPKLLIYDASNLETGVPSRFSGSRSGTDFTLTISSLQPEDFATYYCQQXYTTPPTFGQGTKLEI
modifications: not fully specified; VARIANT 91 natural amino acid or unnatural amino acid
Take B10: the IC50 with CD73 is 0.565 nM.

B11: 10A7: CD73 antibody clone, VH SEQ ID NO: 73, VL SEQ ID NO: 83 (antibody, V domains shown)
VH: EVQLVESGGGLVQPGGSLRLSCAASGFAFSSYSMSWVRQAPGKGLEWIGSIYYSGSTYYNPSLKSRVTISADTSKNTAYLQMNSLRAEDTAVYYCARNSGFETLDYWGQGTLVTVSS
VL: DIQMTQSPSSLSASVGDRVTITCRASQGISRWLAWYQQKPGKAPNLLIYGASTLQSGVPPRFSGSRSGTDFTLTISSLQPEDFATYYCQQXYTTPPTFGQGTKLEI
modifications: VARIANT 91 natural amino acid or unnatural amino acid
In the case of B11, in the test with CD73, the IC50 is 0.607 nM.

B12: A4-PEG3-ASF: IgG1 Ab-UAA A4 conjugated with ASF-PEG3-DBCO (conjugate)
VH: EVQLVESGGGLVQPGGSLRLSCAASGFTFSGHWMHWVRQAPGKGLEWVSGISGSGGSTYYADSVKGRFTISADTSKNTAYLQMNSLRAEDTAVYYCARELTMATTTDAFDIWGQGTLVTVSS
VL: DIQMTQSPSSLSASVGDRVTITCQASQDIRNDLNWYQQKPGKAPKSLIYAASRLQSGVPSRFSGSRSGTDFTLTISSLQPEDFATYYCQQXYTTPPTFGQGTKLEI
modifications: non-natural residues
notes: IgG1 Ab-UAA A4 conjugated with ASF-PEG3-DBCO
Take B12: the IC50 with NaV1.7 (setting [1]) worked out at 1.22 ± 0.534 nM.

B13: 15C12-PEG3-ASF: Ab-UAA 15C12 conjugated to ASF-PEG3-DBCO (conjugate)
VH: EVQLVESGGGLVQPGGSLRLSCAASGFTFSGHWMHWVRQAPGKGLEWVSAISGSGGSTYYADSVKGRFTISADTSKNTAYLQMNSLRAEDTAVYYCARELTMASTTDAFDFWGQGTLVTVSS
VL: DIQMTQSPSSLSASVGDRVTITCQASQDISNSLNWYQQKPGKAPNLLIYATSNLQSGVPSRFSGSRSGTDFTLTISSLQPEDFATYYCQQXYTTPPTFGQGTKLEI
modifications: not fully specified; non-natural residues
notes: Ab-UAA 15C12 conjugated to ASF-PEG3-DBCO
For B13, the 50% inhibitory concentration (IC50) with NaV1.7 (setting [2]) came to 0.0395 ± 0.00968 nM.
